Legend:
TGF-β1 = TGF-β1 (Homo sapiens, UniProt P01137); test: Binding assay of asporin and TGF-β by pull-down assay method; conditions: S-Protein agarose precipitate, Western blotting
Procedure: With the pET29b-ASP13 and pET29b-ASP14 thus prepared as the templates, S-tagged human asporin D13 and D14 were prepared by performing a reaction in the presence of Transcend™ Biotin-Lysyl-tRNA using TNT Quick Coupled Transcription/Translation Systems (Promega). A reaction mixture comprising S-tagged human asporin D13 or D14 (10 μl) and TGF-β1 (0.1 μg) were mixed in buffer A (50 mM Tris (pH 7.5), 150 mM NaCl, 1% Triton X-100, complete protease inhibitor cocktail tablets (Roche)) at 4° C. for 1 hour, S-Protein agarose (Novagen, 12.5 μl) was added, and the mixture was further incubated at room temperature for 30 minutes. The precipitated resin was washed with buffer A five times, after which SDS-PAGE was performed under reducing conditions. S-tagged human asporin in the precipitate was detected by Western blotting using streptavidin-HRP (R&D Systems), and TGF-β1 was detected by Western blotting using biotinylated anti-TGF-β1 antibody (Genzyme). As a result of an examination of the binding of human asporin and TGF-β by the method described above, a band of TGF-β1 was detected in the precipitate comprising S-tagged human asporin D13 or D14 (FIG. 17).
Using the recombinant mouse asporin purified by the method described in Example 31, its capability of binding with TGF-β1 was examined by the method described in Example 22 (pull-down assay method); as a result, it was confirmed that TGF-β1 was detected in the precipitate of purified mouse asporin (FIG. 26).

[1] = tested on: Smad2 phosphorylation in ATDC5 cells; test: TGF-β1-stimulated Smad2 phosphorylation in ATDC5 cells (Western blotting); format: cell-based, mouse; conditions: TGF-β1 10 ng/ml, 5 minutes
Procedure: ATDC5 was inoculated to a 12-well plate, and cultured using the medium 1-2 described in Example 19 until the cells became confluent, after which the medium was exchanged with the same medium but containing 0.2% FBS; 4 hours later, asporin was added. 12 hours later, TGF-β1 (10 ng/ml) was added; 5 minutes later, the cells were lysed with the M-PER reagent (PIERCE). Using this cell extract, SDS-PAGE was performed, and according to the protocol attached to an antibody product of Cell Signaling Company, Western blotting was performed. As the primary antibodies for detection of phosphorylated Smad2 and Smad2 protein, phospho-Smad2 antibody (Cell Signaling) and rabbit anti-Smad2 (Zymed Laboratories) were used, respectively. As the secondary antibody, anti-rabbit IgG-HRP (Cell Signaling) was used.

ATDC5 cells = test: MTT assay of ATDC5 cell growth; format: cell-based, mouse
Procedure: ATDC5 was inoculated to a 12-well plate at 0.4×10^5 cells/well, and cultured using the medium 1-2 described in Example 19 for 24 hours, after which asporin and bFGF were added, and MTT assay was performed over time as described below. Specifically, the medium was removed by suction, the 1 mg/ml MTT reagent (DOJINDO) dissolved in DMEM/F12 was added at 1 ml/well, and the plate was incubated in a CO2 incubator for 1 hour. The supernatant was removed by suction, a Lysis reagent (86% isopropanol, 40 mM HCl, 1% SDS) was added to the plate at 0.2 ml/well, and extraction was performed at room temperature for 5 minutes. This extract was transferred to a 96-well plate, and OD550 was measured using a plate reader.

NHAC = test: Articular chondrocyte differentiation maintenance in redifferentiated NHAC; format: cell-based, human; conditions: 7 days, TGF-β1 40 ng/ml, asporin 20 μg/ml where added
Procedure: NHAC was redifferentiated by alginate beads culture for 2 weeks using a chondrocyte differentiation medium (CDM) manufactured by Cambrex Company according to the protocol attached. These redifferentiated cells were inoculated to a Lab-Tek II chamber slide (Nunc), a DMEM/F12 containing 5% FBS, ITS (Sigma), and TGF-β1 (40 ng/ml) was added, and the cells were allowed to maintain the degree of differentiation thereof; the effects of addition of asporin (20 μg/ml) on the cell morphology and extracellular proteoglycan accumulation were examined.

[2] = tested on: Smad3-specific gene transcription in NHAC; test: SBE4-Luc reporter assay of TGF-β1-stimulated Smad3-specific gene transcription in NHAC; format: cell-based, human; conditions: asporin 40 μg/ml, TGF-β1 10 ng/ml, 24 hours
Procedure: NHAC was inoculated to a 24-well plate at 2.5×10^4 cells/well, cultured in a DMEM/F12 containing 10% FBS and penicillin/streptomycin for 24 hours, and transfected with the SBE4-Luc (Smad binding element ×4-luciferase) plasmid and the pRL-TK vector, which was used as endogenous control. 48 hours later, asporin (40 μg/ml) was added; still 12 hours later, TGF-β1 (10 ng/ml) was added; and the cells were incubated for 24 hours. The luciferase activity in the cells was measured using a PG-DUAL-SP reporter assay system (Toyo Ink).

Sequence of TGF-β1 (P01137 279-390 limits assumed, species assumed): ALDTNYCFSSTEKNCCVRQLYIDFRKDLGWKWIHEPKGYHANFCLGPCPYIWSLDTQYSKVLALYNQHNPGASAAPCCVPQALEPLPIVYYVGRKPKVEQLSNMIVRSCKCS

binding to TGF-β1 (pull-down) (TGF-β1): bound to TGF-β1 in vitro | TGF-β1-stimulated elevation of luciferase activity (SBE4-Luc) [2]: significantly suppressed
B1: purified mouse asporin: recombinant mouse asporin expressed in Escherichia coli, refolded from insoluble fraction and purified by gel filtration (protein)
chain: DMEDTDDDDNDDDDNSLFPTKEPVNPFFPFDLFPTCPFGCQCYSRVVHCSDLGLTSVPNNIPFDTRMVDLQNNKIKEIKENDFKGLTSLYALILNNNKLTKIHPKTFLTTKKLRRLYLSHNQLSEIPLNLPKSLAELRIHDNKVKKIQKDTFKGMNALHVLEMSANPLENNGIEPGAFEGVTVFHIRIAEAKLTSIPKGLPPTLLELHLDFNKISTVELEDLKRYRELQRLGLGNNRITDIENGTFANIPRVREIHLEHNKLKKIPSGLQELKYLQIIFLHYNSIAKVGVNDFCPTVPKMKKSLYSAISLFNNPMKYWEIQPATFRCVLGRMSVQLGNVGK
modifications: left off: small tags and cut ends
Smad2 phosphorylation by TGF-β1 stimulation [1]: suppressed the Smad2 phosphorylation by TGF-β1 (10 ng/ml) stimulation concentration-dependently | growth of ATDC5 cells (MTT, OD550) (ATDC5 cells; added alone, medium 1-2): suppressed the growth of ATDC5 cells concentration-dependently | growth suppressive effect of bFGF on ATDC5 cells (ATDC5 cells; addition of asporin 10 μg/ml): enhanced | Safranine-O stainability (extracellular proteoglycan) (NHAC): decreased | cell morphology (NHAC): fibroblast-like morphology

Source: patent US20090075921A1, “Bone/joint disease sensitivity gene and use thereof” (Riken, priority 2004, published 2009)
